One substance from US20090142372A1 can be followed below.

Test [1] has as its target eBSP tumor epitope fused to a bacterial carrier protein, anchored on carrier bacteria (human; Listeria monocytogenes). The test can be described thus: flow cytometry of carrier bacteria displaying the eBSP-carrier fusion (FIG. 7B). For orientation: In flow cytometry, cells or beads pass a laser one at a time.
In test [2] the target is vBSP-3 anchored on carrier bacteria (human; Listeria monocytogenes) (UniProt P21815). The test can be described thus: flow cytometry of deactivated carrier bacteria displaying vBSP-3, grown in minimal medium (FIG. 5B).
Test [3] has as its target fusion peptide of pIUSind-mBSP3x anchored on Listeria (human; Listeria monocytogenes) (UniProt Q723K6). The test can be described thus: flow cytometry of deactivated carrier bacteria displaying the 3-fold multimer (FIG. 11; rabbit tumor eBSP antiserum).
Test [4] addresses fusion peptide of pIUSind-mBSP4x anchored on Listeria (human; Listeria monocytogenes) (UniProt Q723K6). As to the kind of experiment: flow cytometry of deactivated carrier bacteria displaying the 4-fold multimer (FIG. 11; rabbit tumor eBSP antiserum).
The target of test [5] is fusion peptide of pIUSind-mBSP5x anchored on Listeria (human; Listeria monocytogenes). The test can be described thus: flow cytometry of deactivated carrier bacteria displaying the 5-fold multimer (FIG. 11; rabbit tumor eBSP antiserum).
Test [6] addresses fusion peptide of pIUSind-mBSP6x anchored on Listeria (human; Listeria monocytogenes). As to the kind of experiment: flow cytometry of deactivated carrier bacteria displaying the 6-fold multimer (FIG. 11; rabbit tumor eBSP antiserum).
In test [7] the target is vBSP-2 anchored on carrier bacteria (human; Listeria monocytogenes) (UniProt P21815). As to the kind of experiment: flow cytometry of carrier bacteria displaying vBSP-2, after deactivation.
In test [8] the target is vBSP-3 anchored on carrier bacteria (human; Listeria monocytogenes) (UniProt P21815). As to the kind of experiment: flow cytometry of carrier bacteria displaying vBSP-3, after deactivation.
In test [9] the target is vBSP-4 anchored on carrier bacteria (human; Listeria monocytogenes) (UniProt P21815). The test can be described thus: flow cytometry of carrier bacteria displaying vBSP-4, after deactivation.
Test [10] has as its target vBSP-2 anchored on carrier bacteria (human; Listeria monocytogenes) (UniProt P21815). As to the kind of experiment: flow cytometry of carrier bacteria displaying vBSP-2, before deactivation.
Test [11] addresses vBSP-3 anchored on carrier bacteria (human; Listeria monocytogenes) (UniProt P21815). The test can be described thus: flow cytometry of carrier bacteria displaying vBSP-3, before deactivation.
Test [12] addresses vBSP-4 anchored on carrier bacteria (human; Listeria monocytogenes) (UniProt P21815). As to the kind of experiment: flow cytometry of carrier bacteria displaying vBSP-4, before deactivation.
The target of test [13] is vBSP-3 anchored on carrier bacteria (human; Listeria monocytogenes) (UniProt P21815). The test can be described thus: flow cytometry of carrier bacteria displaying vBSP-3, grown in BHI and minimal media, before deactivation (FIG. 4A and B).
For test [14], the target named is fusion peptide of pIUSind-mBSP5x anchored on Listeria (human; Listeria monocytogenes). As to the kind of experiment: flow cytometry of carrier bacteria displaying the eBSP 5-fold multimer, after deactivation.
In test [15] the target is fusion peptide of pIUSind-mBSP6x anchored on Listeria (human; Listeria monocytogenes). As to the kind of experiment: flow cytometry of carrier bacteria displaying the eBSP 6-fold multimer, after deactivation.
The target of test [16] is fusion peptide of pIUSind-mBSP5x anchored on Listeria (human; Listeria monocytogenes). The test can be described thus: flow cytometry of carrier bacteria displaying the eBSP 5-fold multimer, before deactivation.
The target in test [17] is fusion peptide of pIUSind-mBSP6x anchored on Listeria (human; Listeria monocytogenes). As to the kind of experiment: flow cytometry of carrier bacteria displaying the eBSP 6-fold multimer, before deactivation.
For test [18], the target named is fusion peptide of pIUSind-mBSP1x anchored on Listeria (human; Listeria monocytogenes) (UniProt Q723K6). The test can be described thus: flow cytometry of carrier bacteria displaying eBSP monomer, BHI and minimal medium (FIG. 9, 10; tumor-epitope specific rabbit antibodies).
Test [19] has as its target fusion peptide of pIUSind-mBSP5x anchored on Listeria (human; Listeria monocytogenes). As to the kind of experiment: flow cytometry of carrier bacteria displaying eBSP pentamer, BHI and minimal medium (FIG. 9, 10; tumor-epitope specific rabbit antibodies).

Consider “Anti-Human Bone Sialoprotein (amino acids 108-122) Antibody, polyclonal antiserum, Immundiagnostik AG, Cat.-No. A4219.2, Lot H3150503”, for which the anchoring efficiency (proportion of positive bacteria in FACS) was 6 to 7% in test [1]; 41% in [2]; over 40% in test [3]; over 40% in test [4]; over 40% in test [5]; over 40% in test [6]. Also, the anchoring efficiency (proportion of positive bacteria in FACS) in test [7] was determined as 65%; in [8], 63.9%; in [9], 67.8%; in test [10], 58.4%; in test [11] it was 52.3%; in test [12], 57.8%. Further, the anchoring efficiency (proportion of positive bacteria in FACS) in [13] is over 52%; in [14], 40.1%; in test [15], 46.5%; in test [16] it was 42.5%; in [17] it was 34.2%; in test [18], under 10%. Further, the anchoring efficiency (proportion of positive bacteria in FACS) in test [19] was over 40%.
